This data set deals with the molecule itself. The data set can be described thus: cryo-EM structure.

B1: mouse ClC-3b I607T mutant (natural protein, UniProt P51791 1-818, looked up)
chain: MESEQLFHRGYYRNSYNSITSASSDEELLDGAGAIMDFQTSEDDNLLDGDTAAGTHYTMTNGGSINSSTHLLDLLDEPIPGVGTYDDFHTIDWVREKCKDRERHRRINSKKKESAWEMTKSLYDAWSGWLVVTLTGLASGALAGLIDIAADWMTDLKEGICLSALWYNHEQCCWGSNETTFEERDKCPQWKTWAELIIGQAEGPGSYIMNYIMYIFWALSFAFLAVSLVKVFAPYACGSGIPEIKTILSGFIIRGYLGKWTLMIKTITLVLAVASGLSLGKEGPLVHVACCCGNIFSYLFPKYSTNEAKKREVLSAASAAGVSVAFGAPIGGVLFSLEEVSYYFPLKTLWRSFFAALVAAFVLRSINPFGNSRLVLFYVEYHTPWYLFELFPFILLGVFGGLWGAFFIRANIAWCRRRKSTKFGKYPVLEVIIVAAITAVIAFPNPYTRLNTSELIKELFTDCGPLESSSLCDYRNDMNASKIVDDIPDRPAGVGVYSAIWQLCLALIFKIIMTVFTFGIKVPSGLFIPSMAIGAIAGRIVGIAVEQLAYYHHDWFIFKEWCEVGADCITPGLYAMVGAAACLGGVTRMTVSLVVIVFELTGGLEYTVPLMAAVMTSKWVGDAFGREGIYEAHIRLNGYPFLDAKEEFTHTTLAADVMRPRRSDPPLAVLTQDNMTVDDIENMINETSYNGFPVIMSKESQRLVGFALRRDLTIAIESARKKQEGIVGSSRVCFAQHTPSLPAESPRPLKLRSILDMSPFTVTDHTPMEIVVDIFRKLGLRQCLVTHNGIVLGIITKKDILRHMAQTANQDPASIMFN
As to B1, the binding result is “binds”.

Source of the values: article PMC11303396 (Nature Communications, 2024).
